Measurements reported in patent US20260049134A1 (UNIVERSITY OF FLORIDA RESEARCH FOUNDATION, published 2026).
Where a chain is given by its changes, count along the chain named. Names may count otherwise.

B1: HW-42 chimeric rabbit-human IgG1 LA/LA/PG (antibody, V domains shown)
VH: QSVKESEGGLFKPADTLTLTCTVSGFSLSSNEISWVRQAPGEGLEYIGIIDTGGRAYYAVWARSRSTITRNTNLNTVTLKMTSLTAADTATYFCARGGVDTEWYAFSSWGPGTLVTVPS
VL: SFVLTQPASVQVNLGQTVSLTCTADTLSRRYASWYQQKPGQAPVLLIFRDTSRPSGVPDRFSGSSSGDTATLTISGAQAGDEADYYCATSDGSGSNYQYVFGGGTQLTVTG
notes: Fc-silenced (L234A/L235A/P329G) IgG1, lambda; Alexa Fluor 647-labeled in single-step flow cytometry; Cluster C-1
B2: HW-1 chimeric rabbit-human IgG1 LA/LA/PG (antibody, V domains shown)
VH: QSLEESGGGLFKPTDTLTLTCTASGFSLGSSYAISWVRQAPGKELEWIGTIDSGRAYYARWAKSRSTITRNTNENTVTLKMTSLTAADTATYFCARDLIPTYSQDIWGPGTLVTISS
VL: B1 VL with F48Y, D68N, S95N, N96S, G111S
notes: Fc-silenced (L234A/L235A/P329G) IgG1, lambda; Alexa Fluor 647-labeled in single-step flow cytometry; Prototype of cluster C-1
B3: HW-97 chimeric rabbit-human IgG1 LA/LA/PG (antibody, V domains shown)
VH: QKQLVESGGRLVTPGTPLTLTCTVTGIDLSSHGMSWVRQAPGKGLEWIGVIYPSGSTWYASWARGRFTISKTSTTVDLKMTSLTTEDTATHFCARGDVGGADNNIWGPGTLVTVSS
VL: B1 VL with N13D, D25E, R30S, F48Y, D68N, N96S
notes: Fc-silenced (L234A/L235A/P329G) IgG1, lambda; Alexa Fluor 647-labeled in single-step flow cytometry; Prototype of cluster C-97
B4: HW-17 chimeric rabbit-human IgG1 LA/LA/PG (antibody, V domains shown)
VH: QSLGESRGRLVTPDETLTLTCTVSGIDLSSNAMSWVRQAPGEGLEWIGTINTGGRAYYASWAKGRFTISRTSTTVDLKMTSLTTEDTATYFCARERYSDGRAYDIWGPGTLVTISS
VL: B1 VL with F48Y, R49T, T51S, S52N, V57I, D68N, S90D, N96I
notes: as for B1
B5: HW-70 chimeric rabbit-human IgG1 LA/LA/PG (antibody, V domains shown)
VH: QSLEESGGRLVTPGTPLTLTCTVSGFSLSSNAMSWVRQAPGKGLEWIGTIDGYGYTYYASWAKGRFTVSKTSTTVDLKITSPTTEDTATYFCAREIYLGSNFWGPGTLVTISS
VL: B1 VL with F48Y, D68N, S90A, N96S, Y99F
notes: as for B1
B6: HW-113 chimeric rabbit-human IgG1 LA/LA/PG (antibody, V domains shown)
VH: QKQLVESGGGLVQPGGSLTLTCTVSGFSLNKYYMGWFRQAPGKGLEWIGVISRSGDTYYSSWAKGRFTISKASTTVDLRITSPTTEDTATYFCARDASSPGFHGDRLDLWGQGTLVTVSS
VL: B1 VL with R30S, F48Y, D68N, S93I, Q98L, Y99W
notes: Fc-silenced (L234A/L235A/P329G) IgG1, lambda; Alexa Fluor 647-labeled in single-step flow cytometry
B7: HW-101 chimeric rabbit-human IgG1 LA/LA/PG (antibody, V domains shown)
VH: QEQLVESGGRLVTPGTPLTLTCKASGFSLGKYDMSWVRQAPGKGLEWIGTIYAGSGSTWYASWAKGRFTISKTSTTVDLKMTSLTTEDTATYFCARDFLGVNSIWGPGTLVTISS
VL: B1 VL with R30S, G40D, F48H, S65N, D68N, Y97F, Q98H, Y99F
notes: Fc-silenced (L234A/L235A/P329G) IgG1, lambda; Alexa Fluor 647-labeled in single-step flow cytometry; Cluster C-97
B8: HW-25 chimeric rabbit-human IgG1 LA/LA/PG (antibody, V domains shown)
VH: QSLEESGGRLVTPGTPLTLTCTVSGFSLSSYAMGWVRQAPGKGLEWIGIIDSRGSTYYATWAKGRFTISKTSTTVDLKITSPTTEDTATYFCAREDSYYYDSFNLWGPGTLVTVSS
VL: B1 VL with F48Y, D68N, N96S, Y99C
notes: as for B1
B9: TH9-0022 (antibody, human IgG1, kappa, L234A L235A, V domains shown)
VH: QSLEESGGRLVTPGTPLTLTCTVSGFSLSSYAMNWVRQAPGKGLEWIGIINSYGSTYYASWAKGRFTISKTSTTVDLKITSPTTEDTATYFCARVTYDSYGYGYAPYGMDLWGPGTLVTVSS
VL: LVMTQTPSSTSNAVGGTVTIKCQASQSIGNVLAWYQQKPGQPPKLLIYAASTLASGVPSRVGGSRSGTEYTLTISGVQREDAATYYCLGSDSDSDIAFGGGTELEILR
notes: also called TH9-022; negative control IgG1
B10: TH9-0022 (antibody, human IgG1, kappa, L234A L235A, V domains shown)
VH: B9 VH
VL: B9 VL
notes: also called TH9-022; negative control

molecular target: T1, PTP4A3; test: ELISA on coated protein
T1 construct: also called His-PTP4A3 (R&D Systems)
T1 sequence (chain, as listed by the source limits assumed): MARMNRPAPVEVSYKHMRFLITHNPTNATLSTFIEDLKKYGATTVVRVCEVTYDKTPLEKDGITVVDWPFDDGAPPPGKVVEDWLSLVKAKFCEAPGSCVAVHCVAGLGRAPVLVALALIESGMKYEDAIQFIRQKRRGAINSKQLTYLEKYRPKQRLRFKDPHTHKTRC
Method: Recombinant purified ECDs (50-150 ng) of each putative target protein were coated, incubated with 150 ng of the indicated primary antibody, and binding was detected using a peroxidase-conjugated anti-human Fab secondary antibody. Heatmap represents averages of technical triplicates. (8B) Target validation via siRNA knockdown. H929 cells were transfected with siRNA pools targeting the putative antibody targets ICAM1, CADM1, and PTPRG. Cells were then subjected to cognate IgG binding analysis via flow cytometry. (NT, non-targeting siRNA).
ELISA ELISA was conducted as described previously. Briefly, 50-150 ng of antigen was coated overnight in half-area 96-well plates at 4° C., blocked with 3% BSA at 37° C. for 1 h, and 150 ng of chimeric rabbit/human IgG1 was added, incubating for 2 h at 37° C. […] After incubating at 37° C. for 15 min-1 h (depending on intensity of controls), data were acquired using a SpectraMax M5 plate reader (Molecular Devices).

Binder | binding result
B1 | no binding (tested: 150 ng IgG1 per well)
B2 | no binding (tested: 150 ng IgG1 per well)
B3 | no binding (tested: 150 ng IgG1 per well)
B4 | no binding (tested: 150 ng IgG1 per well)
B5 | no binding (tested: 150 ng IgG1 per well)
B6 | no binding (tested: 150 ng IgG1 per well)
B7 | no binding (tested: 150 ng IgG1 per well)
B8 | no binding (tested: 150 ng IgG1 per well)
B9 | no binding (tested: 150 ng IgG1 per well)

molecular target: T2, PTPRG, endogenous in H929 multiple myeloma cells (human, UniProt P23470 20-1445); test: flow cytometry, IgG1 on H929 cells
T2 construct: Native protein on H929 cells (flow cytometry, siRNA knockdown) and in H929 lysates (IP/MS); also called phosphatase receptor type γ
T2 sequence (P23470 20-1445 limits assumed): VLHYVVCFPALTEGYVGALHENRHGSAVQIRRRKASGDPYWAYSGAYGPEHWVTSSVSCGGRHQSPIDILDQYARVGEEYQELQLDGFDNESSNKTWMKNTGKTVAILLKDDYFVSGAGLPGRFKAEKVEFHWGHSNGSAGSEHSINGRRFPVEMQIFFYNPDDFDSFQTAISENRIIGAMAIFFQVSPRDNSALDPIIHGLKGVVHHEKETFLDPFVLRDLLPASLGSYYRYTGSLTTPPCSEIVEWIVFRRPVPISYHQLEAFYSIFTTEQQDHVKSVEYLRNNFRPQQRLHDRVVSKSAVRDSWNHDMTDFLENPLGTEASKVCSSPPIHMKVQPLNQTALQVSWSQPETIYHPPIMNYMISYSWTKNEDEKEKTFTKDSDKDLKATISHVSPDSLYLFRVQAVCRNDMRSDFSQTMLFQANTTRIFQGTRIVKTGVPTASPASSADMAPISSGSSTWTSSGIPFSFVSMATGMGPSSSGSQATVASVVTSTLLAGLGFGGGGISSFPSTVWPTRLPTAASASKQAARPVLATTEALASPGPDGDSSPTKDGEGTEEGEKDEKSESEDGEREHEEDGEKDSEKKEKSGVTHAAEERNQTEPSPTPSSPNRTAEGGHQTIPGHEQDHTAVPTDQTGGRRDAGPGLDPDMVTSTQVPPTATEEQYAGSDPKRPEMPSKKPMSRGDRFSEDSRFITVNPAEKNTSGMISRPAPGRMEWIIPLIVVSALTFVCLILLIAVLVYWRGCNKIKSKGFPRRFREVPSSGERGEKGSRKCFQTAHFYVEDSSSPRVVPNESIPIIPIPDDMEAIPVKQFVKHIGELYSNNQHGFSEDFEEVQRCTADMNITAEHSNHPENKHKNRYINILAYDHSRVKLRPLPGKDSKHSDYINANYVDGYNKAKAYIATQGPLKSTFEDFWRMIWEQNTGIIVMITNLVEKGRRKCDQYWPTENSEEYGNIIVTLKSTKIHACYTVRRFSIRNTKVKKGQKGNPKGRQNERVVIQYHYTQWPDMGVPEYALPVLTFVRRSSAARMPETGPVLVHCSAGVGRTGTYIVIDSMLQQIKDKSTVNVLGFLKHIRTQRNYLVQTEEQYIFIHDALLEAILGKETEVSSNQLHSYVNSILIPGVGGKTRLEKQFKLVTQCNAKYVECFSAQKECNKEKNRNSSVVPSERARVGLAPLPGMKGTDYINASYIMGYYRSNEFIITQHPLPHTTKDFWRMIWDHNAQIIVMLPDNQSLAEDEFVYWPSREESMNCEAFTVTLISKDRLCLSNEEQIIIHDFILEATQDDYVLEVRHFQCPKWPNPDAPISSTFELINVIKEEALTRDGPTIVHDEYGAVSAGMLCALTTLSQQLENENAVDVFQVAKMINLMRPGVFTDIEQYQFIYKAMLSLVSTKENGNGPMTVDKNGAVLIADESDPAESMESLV
Method: Staining protocol. Cells were harvested (5×10⁴ cells per sample), washed once with phosphate-buffered saline (PBS) at RT, and a second time with ice-cold FACS buffer (PBS, 0.5% BSA, 2 mM EDTA, 0.1% NaN₃). Cells were stained in 50 μL of primary antibody for 30 min on ice, washed twice with 100 μL FACS buffer, stained with 50 μL of diluted secondary antibody, washed two more times in FACS, and then resuspended in 50 μL FACS buffer. Samples were acquired on an Accuri C6 Plus or a BD FACSCanto II flow cytometer (both from BD Biosciences). Data were analyzed using FlowJo version 10 software. Primary antibodies: Fab (10 μg/mL), IgG1 (0.1 to 50 μg/mL), or 25 μL polyclonal Fabs from periplasmic extracts. Polyclonal Fabs were produced by diluting bacterial stocks by a factor of 100 in autoinduction media and incubating overnight to induce expression as previously described. […] Viability stains: DAPI (Cell Signaling Technology) or SYTOX AADvanced Dead Cell Stain (Thermo Fisher Scientific). Labeling: The panel of chimeric rabbit/human IgG1s was labeled using the Alexa Fluor 647 Labeling Kit (Thermo Fisher Scientific, #A20173) to facilitate single-step staining. Competition: Unlabeled IgG1s were added at saturating concentrations of 60 μg/mL to block the target receptors, incubating on ice for 30 min, followed by the addition of an equal volume of the Alexa Fluor 647 labeled antibody at 2 μg/mL, and the mixture was incubated on ice for another 30 min.

Binder | antibody-bound positive cells (%)
B1 | 99.8
B2 | 100
B4 | 100
B5 | 99.8
B8 | 99.6
B9 | 2.7

molecular target: T2, PTPRG, endogenous in H929 multiple …; test: flow cytometry, H929 + vehicle; None 2.74

Binder | Cells stained (%)
B1 | 97.5
B2 | 99.4
B4 | 99.3
B5 | 98.6
B8 | 97.2
B10 | 2.62

molecular target: T2, PTPRG, endogenous in H929 multiple …; test: flow cytometry, H929 + NT Green siRNA; None 416

Binder | mAb binding (MFI)
B1 | 8410
B2 | 16000
B4 | 18600
B5 | 12600
B8 | 7680
B10 | 483
